In article doi:10.1101/511758 (bioRxiv, 2019):
Where two headings read alike, the source gives them in different places.

Columns and labels:
[1] = molecular target: T1, HelQ (Homo sapiens, UniProt Q8TDG4); assay: EMSA
T1 sequence: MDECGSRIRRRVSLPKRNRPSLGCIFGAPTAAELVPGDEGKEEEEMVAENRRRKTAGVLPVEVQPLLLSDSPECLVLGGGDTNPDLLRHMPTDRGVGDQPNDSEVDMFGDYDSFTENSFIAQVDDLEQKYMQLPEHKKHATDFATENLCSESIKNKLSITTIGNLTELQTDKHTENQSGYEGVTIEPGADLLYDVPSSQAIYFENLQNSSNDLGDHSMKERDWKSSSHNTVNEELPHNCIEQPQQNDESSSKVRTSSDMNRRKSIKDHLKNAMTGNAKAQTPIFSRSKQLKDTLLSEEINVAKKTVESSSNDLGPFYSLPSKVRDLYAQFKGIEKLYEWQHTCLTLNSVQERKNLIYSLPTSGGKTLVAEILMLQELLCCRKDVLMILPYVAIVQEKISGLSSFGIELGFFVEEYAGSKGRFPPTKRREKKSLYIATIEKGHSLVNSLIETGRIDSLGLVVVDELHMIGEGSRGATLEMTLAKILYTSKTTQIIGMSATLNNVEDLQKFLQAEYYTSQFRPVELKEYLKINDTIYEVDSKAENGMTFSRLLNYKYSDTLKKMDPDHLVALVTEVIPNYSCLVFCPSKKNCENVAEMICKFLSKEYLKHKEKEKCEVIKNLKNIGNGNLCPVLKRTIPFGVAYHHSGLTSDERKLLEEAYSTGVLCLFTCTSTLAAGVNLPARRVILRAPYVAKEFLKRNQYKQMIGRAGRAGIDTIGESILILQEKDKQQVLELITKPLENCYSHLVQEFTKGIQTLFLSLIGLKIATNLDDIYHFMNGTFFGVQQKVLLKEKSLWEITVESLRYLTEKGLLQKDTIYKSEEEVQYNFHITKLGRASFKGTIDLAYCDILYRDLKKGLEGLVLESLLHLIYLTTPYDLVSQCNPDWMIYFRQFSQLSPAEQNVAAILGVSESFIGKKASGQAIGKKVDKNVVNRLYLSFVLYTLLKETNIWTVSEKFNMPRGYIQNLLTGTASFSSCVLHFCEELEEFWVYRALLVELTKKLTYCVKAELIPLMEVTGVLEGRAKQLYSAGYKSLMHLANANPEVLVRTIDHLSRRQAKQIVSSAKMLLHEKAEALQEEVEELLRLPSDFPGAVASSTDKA

[2] = molecular target: HelQ;RPA (Homo sapiens;Homo sapiens, UniProt Q8TDG4;P27694;P15927;P35244 ;1-616;1-270;1-121, |); assay: EMSA
HelQ;RPA, sequence (P27694 whole entry, chain 2 of 3): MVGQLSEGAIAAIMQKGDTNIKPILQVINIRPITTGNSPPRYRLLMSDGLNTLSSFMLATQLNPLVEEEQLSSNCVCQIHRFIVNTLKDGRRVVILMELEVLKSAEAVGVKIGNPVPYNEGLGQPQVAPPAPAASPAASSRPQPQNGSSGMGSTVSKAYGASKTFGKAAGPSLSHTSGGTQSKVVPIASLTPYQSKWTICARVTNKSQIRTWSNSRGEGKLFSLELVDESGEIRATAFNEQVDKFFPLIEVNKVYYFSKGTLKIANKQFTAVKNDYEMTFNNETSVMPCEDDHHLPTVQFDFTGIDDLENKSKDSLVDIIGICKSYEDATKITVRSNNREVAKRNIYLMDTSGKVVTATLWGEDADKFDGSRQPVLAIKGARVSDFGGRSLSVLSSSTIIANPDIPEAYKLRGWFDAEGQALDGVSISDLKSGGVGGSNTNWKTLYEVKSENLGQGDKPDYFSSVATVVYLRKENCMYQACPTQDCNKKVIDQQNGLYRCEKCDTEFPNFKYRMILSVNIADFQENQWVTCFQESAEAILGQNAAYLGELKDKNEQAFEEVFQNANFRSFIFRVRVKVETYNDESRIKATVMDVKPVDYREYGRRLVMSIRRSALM
HelQ;RPA, sequence (P15927 whole entry, chain 3 of 3): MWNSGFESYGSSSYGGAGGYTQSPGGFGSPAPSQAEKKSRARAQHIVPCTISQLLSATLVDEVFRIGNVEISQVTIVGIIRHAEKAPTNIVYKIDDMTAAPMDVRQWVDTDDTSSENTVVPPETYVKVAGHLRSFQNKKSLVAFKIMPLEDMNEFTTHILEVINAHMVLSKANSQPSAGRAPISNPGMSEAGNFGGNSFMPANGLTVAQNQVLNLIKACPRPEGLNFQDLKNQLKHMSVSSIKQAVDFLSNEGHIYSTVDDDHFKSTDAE
HelQ;RPA, sequence (P35244 whole entry, chain 4 of 3): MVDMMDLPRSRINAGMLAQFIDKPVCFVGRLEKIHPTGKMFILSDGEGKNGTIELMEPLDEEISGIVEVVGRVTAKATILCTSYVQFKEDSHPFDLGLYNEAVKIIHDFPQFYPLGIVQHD

[3] = molecular target: T2, N-HelQ (Homo sapiens, UniProt Q8TDG4 1-417); assay: EMSA
T2 sequence: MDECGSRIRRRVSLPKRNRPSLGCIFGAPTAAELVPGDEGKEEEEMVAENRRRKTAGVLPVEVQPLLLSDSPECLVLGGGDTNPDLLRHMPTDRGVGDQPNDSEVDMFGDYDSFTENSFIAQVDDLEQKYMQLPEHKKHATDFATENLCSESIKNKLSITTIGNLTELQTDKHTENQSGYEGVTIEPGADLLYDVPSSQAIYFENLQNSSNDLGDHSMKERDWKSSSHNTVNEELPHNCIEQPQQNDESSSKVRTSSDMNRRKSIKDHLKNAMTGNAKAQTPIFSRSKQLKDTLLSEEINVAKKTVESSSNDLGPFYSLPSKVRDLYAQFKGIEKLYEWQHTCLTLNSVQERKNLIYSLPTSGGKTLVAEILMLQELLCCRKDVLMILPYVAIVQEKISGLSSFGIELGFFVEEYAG

[4] = molecular target: N-HelQ;RPA (Homo sapiens;Homo sapiens, UniProt Q8TDG4;P27694;P15927;P35244 1-417;1-616;1-270;1-121, |); assay: EMSA
N-HelQ;RPA, sequence (P27694 whole entry, chain 2 of 3): as the sequence (P27694 whole entry, chain 2 of 3) above
N-HelQ;RPA, sequence (P15927 whole entry, chain 3 of 3): as the sequence (P15927 whole entry, chain 3 of 3) above
N-HelQ;RPA, sequence (P35244 whole entry, chain 4 of 3): as the sequence (P35244 whole entry, chain 4 of 3) above

[5] = molecular target: T1, HelQ; assay: EMSA; remark: listed apart in the source
[6] = molecular target: SSB (Escherichia coli, UniProt P0AGE0 1-178); assay: EMSA
SSB, sequence (P0AGE0 whole entry): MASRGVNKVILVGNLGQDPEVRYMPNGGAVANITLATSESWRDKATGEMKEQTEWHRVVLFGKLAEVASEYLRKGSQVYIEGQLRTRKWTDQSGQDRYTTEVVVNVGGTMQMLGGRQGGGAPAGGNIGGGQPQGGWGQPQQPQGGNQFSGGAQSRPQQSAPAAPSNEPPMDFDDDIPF

[7] = molecular target: the molecule itself; assay: SEC-MALS

B1: Fork-Me (mixed)
DNA 1: GTCGGATCCTCTAGACAGCATCCATGATCACTGGCACTGGTAGAATTCGGC
DNA 2: CAACGTCATAGACGATTACATTGCTACATGGATGCTGTCTAGAGGATCCGA
modifications: single methylphosphonate linkage in the 3'-5' tracking strand (position marked only in Fig S6)
binding result [1]: binds

B2: Fork-A (mixed)
DNA 1: GTCGGATCCTCTAGACAGCTCCATGATCACTGGCACTGGTAGAATTCGGC
DNA 2: CAACGTCATAGACGATTACATTGCTACATGGAGCTCTCTAGAGGATCCGA
binding result [2]: binds | binding result [3]: no binding | binding result [4]: binds | binding result [5]: binds | binding result [6]: binds

B3: Fork-AP (mixed)
DNA 1: B2 DNA 1
DNA 2: B2 DNA 2
modifications: single abasic site in the 3'-5' tracking strand (position marked only in Fig S6)
binding result [1]: binds

B4: Fork-S (mixed)
DNA 1: B2 DNA 1
DNA 2: B2 DNA 2
modifications: single phosphorothioate linkage in the 3'-5' tracking strand (position marked only in Fig S6)
binding result [1]: binds

B5: human HelQ helicase (full-length HelQ) (enzyme)
chain: T1 sequence
stoichiometry N [7]: 2
